Data reported in IntAct's records for PubMed 22078559.

B1: Double-strand break repair protein MRE11 (Homo sapiens), P49959 (parent)
chain: MSTADALDDENTFKILVATDIHLGFMEKDAVRGNDTFVTLDEILRLAQENEVDFILLGGDLFHENKPSRKTLHTCLELLRKYCMGDRPVQFEILSDQSVNFGFSKFPWVNYQDGNLNISIPVFSIHGNHDDPTGADALCALDILSCAGFVNHFGRSMSVEKIDISPVLLQKGSTKIALYGLGSIPDERLYRMFVNKKVTMLRPKEDENSWFNLFVIHQNRSKHGSTNFIPEQFLDDFIDLVIWGHEHECKIAPTKNEQQLFYISQPGSSVVTSLSPGEAVKKHVGLLRIKGRKMNMHKIPLHTVRQFFMEDIVLANHPDIFNPDNPKVTQAIQSFCLEKIEEMLENAERERLGNSHQPEKPLVRLRVDYSGGFEPFSVLRFSQKFVDRVANPKDIIHFFRHREQKEKTGEEINFGKLITKPSEGTTLRVEDLVKQYFQTAEKNVQLSLLTERGMGEAVQEFVDKEEKDAIEELVKYQLEKTQRFLKERHIDALEDKIDEEVRRFRETRQKNTNEEDDEVREAMTRARALRSQSEESASAFSADDLMSIDLAEQMANDSDDSISAATNKGRGRGRGRRGGRGQNSASRGGSQRGRADTGLETSTRSRNSKTAVSASRNMSIIDAFKSTRQQPSRNVTTKNYSEVIEVDESDVEEDIFPTTSKTDQRWSSTSSSKIMSQSQVSKGVDFESSEDDDDDPFMNTSSLRRNRR

Variants of: B1
Details: with nbn_human NBN
For P121G, the “effect of a mutation on the interaction” value was “disrupting interaction”.
D86L was tested, and the “effect of a mutation on the interaction” value was “decreasing interaction”.
R80A was tested, and the “effect of a mutation on the interaction” value was “disrupting interaction”.
In the case of S104C, the “effect of a mutation on the interaction” value is reported as “decreasing interaction”.
R202G was tested, and the “effect of a mutation on the interaction” value was “disrupting interaction”.
For C146A, the “effect of a mutation on the interaction” value was “decreasing interaction”.
In the case of N117L, the “effect of a mutation on the interaction” value is reported as “disrupting interaction”.
